Test results: publication PMC3629964

Biological target: NH2-terminal-PEGylated HZ-TRAIL monomer (human) (UniProt P50591)
Experiment: SEC + other: quantitative Western blot

stoichiometry N: 2
Substance: 6xHis-ILZ-hTRAIL(114-281) (from UniProt P50591 114-281) (ligand)
